Test results: article PMC5472717

How the values were obtained:
[1] = target: Zur (zinc uptake regulator) of Streptomyces coelicolor (Streptomyces coelicolor); test: native gel or EMSA; EMSA of purified Zur (0-90 nM) on 32P-labelled znuA and zitB DNA probes (25, 33, 46, 114 bp) with 0-20 uM ZnSO4; 20 mM Tris-HCl pH 7.8, 50 mM KCl, 1 mM DTT, room temperature; the number of Zur chains in each shifted band was estimated from mobility on native PAGE at different acrylamide percentages; Zur oligomers seen only on DNA
[2] = test system: Zur (zinc uptake regulator) (Streptomyces coelicolor A3(2) M145?); test: EMSA; settings: 5 uM ZnSO4; 20 mM Tris-HCl pH 7.8, 50 mM KCl, 1 mM DTT, 0.1 mg/ml BSA, 5% glycerol, 0.1 ug poly(dI-dC) per 20 ul, 0-20 uM ZnSO4, room temperature 20 min; gel 5% PAGE in TB …

Substance | stoichiometry N [1] | Kd [2] [nM]
Zur (zinc uptake regulator) of Streptomyces coelicolor (natural protein) | 2 | –
GCACATGACAACGGTGTTCAGTGCC (double strand) [zitB 25 bp Zur-box probe (-63 to -39)] | – | 19.3
